Results published in article PMC2783309 (Experimental cell research, 2009).

Molecular target: Biotinylated Clostridium difficile toxin A (Clostridium difficile strain VPI 10463, UniProt P16154 1-2710)
Test: pull-down

Biotinylated Clostridium difficile toxin A, sequence (P16154 whole entry): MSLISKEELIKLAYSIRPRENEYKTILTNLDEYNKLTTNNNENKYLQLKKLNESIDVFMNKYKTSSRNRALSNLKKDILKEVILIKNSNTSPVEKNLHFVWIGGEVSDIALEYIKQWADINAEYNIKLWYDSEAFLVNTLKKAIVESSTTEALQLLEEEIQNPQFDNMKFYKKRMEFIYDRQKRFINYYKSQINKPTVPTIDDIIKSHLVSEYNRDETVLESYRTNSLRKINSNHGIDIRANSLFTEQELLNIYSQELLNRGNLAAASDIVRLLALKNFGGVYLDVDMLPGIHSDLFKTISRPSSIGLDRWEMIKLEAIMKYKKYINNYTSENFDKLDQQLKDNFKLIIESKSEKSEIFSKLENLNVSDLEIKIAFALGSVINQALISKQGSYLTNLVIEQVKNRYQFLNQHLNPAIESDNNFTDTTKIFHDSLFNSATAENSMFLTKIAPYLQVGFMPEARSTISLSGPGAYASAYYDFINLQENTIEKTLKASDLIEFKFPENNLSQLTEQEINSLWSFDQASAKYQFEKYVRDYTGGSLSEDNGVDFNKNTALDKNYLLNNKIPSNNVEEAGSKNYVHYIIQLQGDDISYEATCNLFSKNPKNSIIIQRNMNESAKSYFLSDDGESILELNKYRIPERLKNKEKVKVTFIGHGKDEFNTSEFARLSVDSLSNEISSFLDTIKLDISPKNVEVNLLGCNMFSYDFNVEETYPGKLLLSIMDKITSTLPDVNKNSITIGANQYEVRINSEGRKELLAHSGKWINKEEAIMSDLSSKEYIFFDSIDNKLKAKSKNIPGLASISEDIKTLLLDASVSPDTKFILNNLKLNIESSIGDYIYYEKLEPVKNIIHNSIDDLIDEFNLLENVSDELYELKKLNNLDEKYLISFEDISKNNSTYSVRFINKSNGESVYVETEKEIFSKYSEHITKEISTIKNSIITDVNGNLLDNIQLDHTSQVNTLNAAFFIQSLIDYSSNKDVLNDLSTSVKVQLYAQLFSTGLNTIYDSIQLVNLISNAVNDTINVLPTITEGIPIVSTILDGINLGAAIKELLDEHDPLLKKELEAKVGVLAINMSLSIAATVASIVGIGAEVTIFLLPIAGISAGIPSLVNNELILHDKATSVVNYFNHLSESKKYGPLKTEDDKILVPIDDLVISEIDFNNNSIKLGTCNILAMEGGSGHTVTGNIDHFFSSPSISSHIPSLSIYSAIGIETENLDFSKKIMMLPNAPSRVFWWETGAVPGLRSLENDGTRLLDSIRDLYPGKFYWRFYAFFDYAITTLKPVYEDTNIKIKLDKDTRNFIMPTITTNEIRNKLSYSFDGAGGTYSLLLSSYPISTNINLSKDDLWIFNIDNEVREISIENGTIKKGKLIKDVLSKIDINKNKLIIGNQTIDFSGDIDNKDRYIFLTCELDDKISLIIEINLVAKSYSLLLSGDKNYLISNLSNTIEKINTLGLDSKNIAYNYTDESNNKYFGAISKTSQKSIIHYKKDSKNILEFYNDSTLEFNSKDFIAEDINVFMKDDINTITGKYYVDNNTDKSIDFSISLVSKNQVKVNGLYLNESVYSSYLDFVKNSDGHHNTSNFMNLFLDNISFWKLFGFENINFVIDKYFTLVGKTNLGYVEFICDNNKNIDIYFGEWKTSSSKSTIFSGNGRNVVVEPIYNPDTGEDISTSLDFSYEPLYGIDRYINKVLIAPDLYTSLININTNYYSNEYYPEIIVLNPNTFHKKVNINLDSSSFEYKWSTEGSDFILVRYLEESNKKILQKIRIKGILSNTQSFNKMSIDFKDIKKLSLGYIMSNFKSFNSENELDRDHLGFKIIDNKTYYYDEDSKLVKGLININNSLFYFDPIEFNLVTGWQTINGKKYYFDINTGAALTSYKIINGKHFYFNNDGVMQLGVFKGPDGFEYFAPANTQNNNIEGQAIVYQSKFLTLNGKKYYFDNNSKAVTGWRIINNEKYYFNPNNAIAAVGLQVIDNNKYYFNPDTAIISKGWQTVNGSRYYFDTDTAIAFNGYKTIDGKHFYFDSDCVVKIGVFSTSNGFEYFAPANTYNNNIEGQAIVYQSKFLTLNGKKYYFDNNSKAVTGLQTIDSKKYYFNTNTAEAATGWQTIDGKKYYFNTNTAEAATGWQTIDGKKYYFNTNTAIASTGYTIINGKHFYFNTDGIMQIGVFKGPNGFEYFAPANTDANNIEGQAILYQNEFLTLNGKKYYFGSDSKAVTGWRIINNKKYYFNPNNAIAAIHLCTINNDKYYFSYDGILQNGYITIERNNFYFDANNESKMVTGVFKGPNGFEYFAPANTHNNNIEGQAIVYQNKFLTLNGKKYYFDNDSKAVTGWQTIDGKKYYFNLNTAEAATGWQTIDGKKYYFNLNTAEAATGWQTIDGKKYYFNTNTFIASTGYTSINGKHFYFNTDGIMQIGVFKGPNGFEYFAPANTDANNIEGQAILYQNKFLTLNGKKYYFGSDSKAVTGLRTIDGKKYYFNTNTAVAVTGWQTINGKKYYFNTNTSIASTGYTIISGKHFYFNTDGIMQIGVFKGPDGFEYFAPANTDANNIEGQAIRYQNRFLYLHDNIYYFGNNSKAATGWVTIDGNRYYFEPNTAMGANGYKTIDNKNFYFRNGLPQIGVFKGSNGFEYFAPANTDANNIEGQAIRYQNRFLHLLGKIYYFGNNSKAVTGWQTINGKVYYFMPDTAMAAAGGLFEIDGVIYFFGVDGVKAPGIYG

B1: GST-Src catalytic domain (domain or fragment, UniProt P12931-1 226-536, looked up)
chain: LQQLVAYYSKHADGLCHRLTTVCPTSKPQTQGLAKDAWEIPRESLRLEVKLGQGCFGEVWMGTWNGTTRVAIKTLKPGTMSPEAFLQEAQVMKKLRHEKLVQLYAVVSEEPIYIVTEYMSKGSLLDFLKGETGKYLRLPQLVDMAAQIASGMAYVERMNYVHRDLRAANILVGENLVCKVADFGLARLIEDNEYTARQGAKFPIKWTAPEAALYGRFTIKSDVWSFGILLTELTTKGRVPYPGMVNREVLDQVERGYRMPCPPECPESLHDLMCQCWRKEPEERPTFEYLQAFLEDYFTSTEPQYQPGENL
B1: binds.
